# Data: US10702592B2, “Peptides and combination of peptides for use in immunotherapy against NHL and other cancers” (Immatics Biotechnologies GmbH, priority 2016, dated 2020)
# Test system: CD8+ T cells
# Test: In vitro T-cell priming immunogenicity assay (aAPC with pMHC and anti-CD28, multimer staining)
# Format: cell-based, human
# Settings: CD8+ T cells of healthy HLA-A*02 donors, three stimulation cycles, multimer readout
# Excerpt: In order to obtain information regarding the immunogenicity of the TUMAPs of the present invention, the inventors performed investigations using an in vitro T-cell priming assay based on repeated stimulations of CD8+ T cells with artificial antigen presenting cells (aAPCs) loaded with peptide/MHC complexes and anti-CD28 antibody.
# In order to perform in vitro stimulations by artificial antigen presenting cells loaded with peptide-MHC complex (pMHC) and anti-CD28 antibody, the inventors first isolated CD8+ T cells from fresh HLA-A*02 leukapheresis products via positive selection using CD8 microbeads (Miltenyi Biotec, Bergisch-Gladbach, Germany) of healthy donors obtained from the University clinics Mannheim, Germany, after informed consent.
# PBMCs and isolated CD8+ lymphocytes were incubated in T-cell medium (TCM) until use consisting of RPMI-Glutamax (Invitrogen, Karlsruhe, Germany) supplemented with 10% heat inactivated human AB serum (PAN-Biotech, Aidenbach, Germany), 100 U/ml Penicillin/100 μg/ml Streptomycin (Cambrex, Cologne, Germany), 1 mM sodium pyruvate (CC Pro, Oberdorla, Germany), 20 μg/ml Gentamycin (Cambrex). 2.5 ng/ml IL-7 (PromoCell, Heidelberg, Germany) and 10 U/ml IL-2 (Novartis Pharma, Nurnberg, Germany) were also added to the TCM at this step.
# Generation of pMHC/anti-CD28 coated beads, T-cell stimulations and readout was performed in a highly defined in vitro system using four different pMHC molecules per stimulation condition and 8 different pMHC molecules per readout condition.
# The purified co-stimulatory mouse IgG2a anti human CD28 Ab 9.3 (Jung et al., 1987) was chemically biotinylated using Sulfo-N-hydroxysuccinimidobiotin as recommended by the manufacturer (Perbio, Bonn, Germany). Beads used were 5.6 μm diameter streptavidin coated polystyrene particles (Bangs Laboratories, Illinois, USA).
# 800.000 beads/200 μl were coated in 96-well plates in the presence of 4×12.5 ng different biotin-pMHC, washed and 600 ng biotin anti-CD28 were added subsequently in a volume of 200 μl. Stimulations were initiated in 96-well plates by co-incubating 1×10^6 CD8+ T cells with 2×10^5 washed coated beads in 200 μl TCM supplemented with 5 ng/ml IL-12 (PromoCell) for 3 days at 37° C. Half of the medium was then exchanged by fresh TCM supplemented with 80 U/ml IL-2 and incubating was continued for 4 days at 37° C. This stimulation cycle was performed for a total of three times. For the pMHC multimer readout using 8 different pMHC molecules per condition, a two-dimensional combinatorial coding approach was used as previously described (Andersen et al., 2012) with minor modifications encompassing coupling to 5 different fluorochromes. Finally, multimeric analyses were performed by staining the cells with Live/dead near IR dye (Invitrogen, Karlsruhe, Germany), CD8-FITC antibody clone SK1 (BD, Heidelberg, Germany) and fluorescent pMHC multimers. For analysis, a BD LSRII SORP cytometer equipped with appropriate lasers and filters was used. Peptide specific cells were calculated as percentage of total CD8+ cells. Evaluation of multimeric analysis was done using the FlowJo software (Tree Star, Oregon, USA). In vitro priming of specific multimer+CD8+ lymphocytes was detected by comparing to negative control stimulations.
row,Substance,"in vitro immunogenicity, wells"
1,319 (SLYKGLLSV; listed as Homo sapiens) [compound 319],++ (20% - 49% = ++)
2,320 (LLWGNLPEI; listed as Homo sapiens) [compound 320],++ (20% - 49% = ++)
3,321 (KLLAVIHEL; listed as Homo sapiens) [compound 321],++ (20% - 49% = ++)
4,322 (TLTNIIHNL; listed as Homo sapiens) [compound 322],++ (20% - 49% = ++)
5,323 (ILVDWLVQV; listed as Homo sapiens) [compound 323],++ (20% - 49% = ++)
6,324 (LLYDAVHIV; listed as Homo sapiens) [compound 324],++ (20% - 49% = ++)
7,325 (FLFVDPELV; listed as Homo sapiens) [compound 325],+++ (50% - 69% = +++)
8,326 (KLTDVGIATL; listed as Homo sapiens) [compound 326],++++ (≥70% = ++++)
9,327 (MLFGHPLLVSV; listed as Homo sapiens) [compound 327],++ (20% - 49% = ++)
10,328 (ILFPDIIARA; listed as Homo sapiens) [compound 328],++++ (≥70% = ++++)

# Same assay, conditions: HLA-A*02 restricted peptides; percentage of positive wells and donors (among evaluable)
row,Substance,Wells positive [%]
1,1 (LLSGQLPTI; listed as Homo sapiens) [compound 1],“+++” (50% - 69% = +++)
2,2 (LLSEETPSA; listed as Homo sapiens) [compound 2],“+” (<20% = +)
3,3 (LTIDTQYYL; listed as Homo sapiens) [compound 3],“+” (<20% = +)
4,5 (VLQGLTFTL; listed as Homo sapiens) [compound 5],“+++” (50% - 69% = +++)

# Target: HLA-A*02:01 (Homo sapiens, UniProt P04439, D140Y/D185E/D98H/E176V/E277Q/G131W/G231S/I119V/I121R/I166T/I218V/L300P/L318F/N151K/N90K/P208A/P217A/Q86G/Q94H/R138H/R169H/T345S)
# Test: MHC binding assay (UV-ligand exchange, beta2m ELISA)
# Settings: binding to HLA-A*02:01, UV-ligand exchange
# Procedure, shortened: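 Binding capacity is expressed as the yield of UV-mediated ligand exchange, reflecting how well each peptide stabilizes peptide-receptive MHC. Stabilized complexes are read out by anti-β2m HRP ELISA (450 nm) after streptavidin capture, with refolded MLA-001 monomer standards for quantitation.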
row,Substance,"Peptide exchange (MHC class I binding score, peptide exchange yield)"
1,1 (LLSGQLPTI; listed as Homo sapiens) [compound 1],“+++” (≥50 = +++)
2,2 (LLSEETPSA; listed as Homo sapiens) [compound 2],“+++” (≥50 = +++)
3,3 (LTIDTQYYL; listed as Homo sapiens) [compound 3],“+++” (≥50 = +++)
4,5 (VLQGLTFTL; listed as Homo sapiens) [compound 5],“+++” (≥50 = +++)
5,276 (NMISYVVHL; listed as Homo sapiens) [compound 276],“++” (≥20% = ++)
6,277 (FLIDLNSTHGTFL; listed as Homo sapiens) [compound 277],“+++” (≥50 = +++)
7,278 (FLLFINHRL; listed as Homo sapiens) [compound 278],“+++” (≥50 = +++)
8,279 (NLAGENILNPL; listed as Homo sapiens) [compound 279],“+++” (≥50 = +++)
9,280 (SLLNHLPYL; listed as Homo sapiens) [compound 280],“++++” (≥75% = ++++)
10,281 (TLQTVPLTTV; listed as Homo sapiens) [compound 281],“++++” (≥75% = ++++)
11,282 (YLLEQGAQV; listed as Homo sapiens) [compound 282],“++++” (≥75% = ++++)
12,283 (ALMPVTPQA; listed as Homo sapiens) [compound 283],“+++” (≥50 = +++)
13,284 (KLQEQIHRV; listed as Homo sapiens) [compound 284],“+++” (≥50 = +++)
14,285 (SITAVTPLL; listed as Homo sapiens) [compound 285],“+++” (≥50 = +++)
15,286 (HLTEDTPKV; listed as Homo sapiens) [compound 286],“+++” (≥50 = +++)
16,287 (ILMGHSLYM; listed as Homo sapiens) [compound 287],“++++” (≥75% = ++++)
17,288 (RLAPEIVSA; listed as Homo sapiens) [compound 288],“+++” (≥50 = +++)
18,289 (SLLAANNLL; listed as Homo sapiens) [compound 289],“++++” (≥75% = ++++)
19,290 (IASPVIAAV; listed as Homo sapiens) [compound 290],“+++” (≥50 = +++)
20,291 (KIIDTAGLSEA; listed as Homo sapiens) [compound 291],“+++” (≥50 = +++)

# Results, then the substance that gave them:
row,"Peptide exchange (MHC class I binding score, peptide exchange yield)",Substance
1,“+++” (≥50 = +++),292 (KLINSQISL; listed as Homo sapiens) [compound 292]
2,“++++” (≥75% = ++++),293 (GLAMVEAISYV; listed as Homo sapiens) [compound 293]
3,“++++” (≥75% = ++++),294 (KLYGPEGLELV; listed as Homo sapiens) [compound 294]
4,“+++” (≥50 = +++),295 (SLAAVSQQL; listed as Homo sapiens) [compound 295]
5,“++++” (≥75% = ++++),296 (FILEPLYKI; listed as Homo sapiens) [compound 296]
6,“+++” (≥50 = +++),297 (ILQNGLETL; listed as Homo sapiens) [compound 297]
7,“++++” (≥75% = ++++),298 (ALTDVILCV; listed as Homo sapiens) [compound 298]
8,“+++” (≥50 = +++),299 (RLLEEEGVSL; listed as Homo sapiens) [compound 299]
9,“+++” (≥50 = +++),300 (IVLERNPEL; listed as Homo sapiens) [compound 300]
10,“+++” (≥50 = +++),301 (LQFDGIHVV; listed as Homo sapiens) [compound 301]
11,“+++” (≥50 = +++),302 (SLAELDEKISA; listed as Homo sapiens) [compound 302]
12,“++++” (≥75% = ++++),303 (FVWEASHYL; listed as Homo sapiens) [compound 303]
13,“+++” (≥50 = +++),304 (ALIRLDDLFL; listed as Homo sapiens) [compound 304]
14,“+++” (≥50 = +++),305 (AMLAQQMQL; listed as Homo sapiens) [compound 305]
15,“+++” (≥50 = +++),306 (AQVALVNEV; listed as Homo sapiens) [compound 306]
16,“+++” (≥50 = +++),307 (FLLPVAVKL; listed as Homo sapiens) [compound 307]
17,“+++” (≥50 = +++),308 (SLLDQIPEM; listed as Homo sapiens) [compound 308]
18,“+++” (≥50 = +++),309 (SLSFVSPSL; listed as Homo sapiens) [compound 309]
19,“+++” (≥50 = +++),310 (VMAEAPPGV; listed as Homo sapiens) [compound 310]
20,“+++” (≥50 = +++),311 (YLHRQVAAV; listed as Homo sapiens) [compound 311]
21,“++” (≥20% = ++),314 (LIDDKGTIKL; listed as Homo sapiens) [compound 314]
